Where no end group is shown, it is not given here. The star is where a group is joined. Biotin = O=C1N[C@H]2[C@H](CS[C@H]2CCCCC(=O)*)N1
T1: naked peptide MTPTDFTSPI (human)
T1 peptide: MTPTDFTSPI

T2: naked peptide TDFTSPIPNM (human)
T2 peptide: TDFTSPIPNM

T3: naked peptide TSPIPNMADD (human)
T3 peptide: TSPIPNMADD

T4: naked peptide DYGSESTSSM (human)
T4 peptide: DYGSESTSSM

T5: naked peptide TSSMEDYVNF (human)
T5 peptide: TSSMEDYVNF

T6: naked peptide MEDYVNFNFT (human)
T6 peptide: MEDYVNFNFT

T7: naked peptide YVNFNFTDFY (human)
T7 peptide: YVNFNFTDFY

T8: naked peptide FNFTDFYCEK (human)
T8 peptide: FNFTDFYCEK

T9: naked peptide TDFYCEKNNV (human)
T9 peptide: TDFYCEKNNV

T10: naked peptide YCEKNNVRQF (human)
T10 peptide: YCEKNNVRQF

T11: naked peptide KNNVRQFAS (human)
T11 peptide: KNNVRQFAS

T12: naked peptide IPNMADDYGS (human)
T12 peptide: IPNMADDYGS

T13: naked peptide MADDYGSEST (human)
T13 peptide: MADDYGSEST

T14: naked peptide SESTSSMEDY (human)
T14 peptide: SESTSSMEDY

T15: naked peptide SSMEDYVNFN (human)
T15 peptide: SSMEDYVNFN

T16: naked peptide SMEDYVNFNF (human)
T16 peptide: SMEDYVNFNF

T17: biotin-peptide MTPTDFTSPI (human, also: prints MTPTDFTSP, without I10)
T17 peptide: Biotin-MTPTDFTSPI

T18: biotin-peptide TSSMEDYVNF (human)
T18 peptide: Biotin-TSSMEDYVNF

T19: biotin-peptide SSMEDYVNFN (human)
T19 peptide: Biotin-SSMEDYVNFN

T20: biotin-peptide SMEDYVNFNF (human)
T20 peptide: Biotin-SMEDYVNFNF

T21: biotin-peptide MEDYVNFNFT (human)
T21 peptide: Biotin-MEDYVNFNFT

B1: Comparative antibody 1 (Comp-1) scFv, SEQ ID NO: 10 from WO2023/037125 A1, His-tagged (scFv)
scFv: QVQLKESGPGLVQPSQTLSLTCTVSGFSVASYDMHWVRLPPGKGLEWMGIIWANGNTHYNSGLKSRLSISRDTSKSQVFLKMNSLQTEDTAIYFCTRGGFAYWGQGTLVTVSSGGGGSGGGGSGGGGSGGGGSDVVMTQTPVSLSVSLGGQVSISCRSSQSLVHNNGNTYLSWYLQKPGQSPQLLIYKVSNRFSGVSDRFSGSGSGTDFTLKISRVEPDDLGVYYCGQGTQYPTFGGGTKLELKHHHHHH
B2: CCR9_HUM2 scFv (humanized anti-CCR9 scFv, SEQ ID NO: 17 with C-terminal 6xHis tag) (scFv)
scFv: QVQLVQSGAEVKKPGASVKVSCTASGYSFTDYIIYWVKQAHGQSLEWMGYIDPNNYNTRYSQKFQGKVTITVDKSSTSAYMELNSLTSDDTAVYYCARDVYWGQGTTVTVSSGGGGSGGGGSGGGGSGGGGSDVVMTQTPLSLSVTPGQPASISCRSSQSLVHSNGKTYLQWYLQKPGQSPKLLIYKVSNRFSGVPDRFSGSGSGTDFTLKISRVEAEDVGVYFCAQSTHVWTFGGGTKVEIKRAHHHHHH

Legend:
[1] = molecular target: T1, naked peptide MTPTDFTSPI; experiment: ELISA, naked peptide
[2] = molecular target: T2, naked peptide TDFTSPIPNM; experiment: ELISA, naked peptide
[3] = molecular target: T3, naked peptide TSPIPNMADD; experiment: ELISA, naked peptide
[4] = molecular target: T4, naked peptide DYGSESTSSM; experiment: ELISA, naked peptide
[5] = molecular target: T5, naked peptide TSSMEDYVNF; experiment: ELISA, naked peptide
[6] = molecular target: T6, naked peptide MEDYVNFNFT; experiment: ELISA, naked peptide
[7] = molecular target: T7, naked peptide YVNFNFTDFY; experiment: ELISA, naked peptide
[8] = molecular target: T8, naked peptide FNFTDFYCEK; experiment: ELISA, naked peptide
[9] = molecular target: T9, naked peptide TDFYCEKNNV; experiment: ELISA, naked peptide
[10] = molecular target: T10, naked peptide YCEKNNVRQF; experiment: ELISA, naked peptide
[11] = molecular target: T11, naked peptide KNNVRQFAS; experiment: ELISA, naked peptide
[12] = molecular target: T1, naked peptide MTPTDFTSPI; experiment: ELISA naked peptide; scFv 1 ug/mL; repII
Protocol: (§1) The peptides were synthesized naked or with a N-terminal Biotin modification with a purity of >98%. All four scFvs were verified by ELISA that can be detected with anti-His antibodies. ELISA was performed for scFv-peptide binding validation. Briefly, naked peptides were coated (50 μg/mL) in 0.58M carbonate-bicarbonate buffer pH9.5, 100 μL/well, 4° C. O/N. Then after blocking (3% BSA-PBS, 300 μL/well 37° C. 1.5 h) and washing (PBS+Tween-20 0.05% v/v (0.05% PBST), wells were incubated with each purified scFv antibody at concentration of 1 μg/mL in PBS at 37° C. 1 h. After washing (0.05% PBST), wells were incubated with secondary antibodies (goat anti-His IgG-HRP) in PBS, 37° C., 30 min. After washing, and incubation with TMB substrate, reactions were stopped with 2M HCl and reading was quantified at OD450.
(§2) Then a library of overlapping peptides were designed and constructed separately to produce 16 different peptides, covering full antigen sequence of total 48 aa. Peptide size was 10aa, with 7aa overlapping and ELISA screening of scFv against each peptide was performed in duplicate. Screening was performed using naked peptides in a standard plate or biotinylated peptides using avidin-plates.

[13] = molecular target: T2, naked peptide TDFTSPIPNM; experiment: ELISA naked peptide; scFv 1 ug/mL; repII
Protocol: as §1, §2

[14] = molecular target: T3, naked peptide TSPIPNMADD; experiment: ELISA naked peptide; scFv 1 ug/mL; repII
Protocol: as §1, §2

[15] = molecular target: T12, naked peptide IPNMADDYGS; experiment: ELISA naked peptide; scFv 1 ug/mL; repII
Protocol: as §1, §2

[16] = molecular target: T13, naked peptide MADDYGSEST; experiment: ELISA naked peptide; scFv 1 ug/mL; repII
Protocol: as §1, §2

[17] = molecular target: T4, naked peptide DYGSESTSSM; experiment: ELISA naked peptide; scFv 1 ug/mL; repII
Protocol: as §1, §2

[18] = molecular target: T14, naked peptide SESTSSMEDY; experiment: ELISA naked peptide; scFv 1 ug/mL; repII
Protocol: as §1, §2

[19] = molecular target: T5, naked peptide TSSMEDYVNF; experiment: ELISA naked peptide; scFv 1 ug/mL; repII
Protocol: as §1, §2

[20] = molecular target: T15, naked peptide SSMEDYVNFN; experiment: ELISA naked peptide; scFv 1 ug/mL; repII
Protocol: as §1, §2

[21] = molecular target: T16, naked peptide SMEDYVNFNF; experiment: ELISA naked peptide; scFv 1 ug/mL; repII
Protocol: as §1, §2

[22] = molecular target: T6, naked peptide MEDYVNFNFT; experiment: ELISA naked peptide; scFv 1 ug/mL; repII
Protocol: as §1, §2

[23] = molecular target: T7, naked peptide YVNFNFTDFY; experiment: ELISA naked peptide; scFv 1 ug/mL; repII
Protocol: as §1, §2

[24] = molecular target: T8, naked peptide FNFTDFYCEK; experiment: ELISA naked peptide; scFv 1 ug/mL; repII
Protocol: as §1, §2

[25] = molecular target: T9, naked peptide TDFYCEKNNV; experiment: ELISA naked peptide; scFv 1 ug/mL; repII
Protocol: as §1, §2

[26] = molecular target: T10, naked peptide YCEKNNVRQF; experiment: ELISA naked peptide; scFv 1 ug/mL; repII
Protocol: as §1, §2

[27] = molecular target: T11, naked peptide KNNVRQFAS; experiment: ELISA naked peptide; scFv 1 ug/mL; repII
Protocol: as §1, §2

[28] = molecular target: T17, biotin-peptide MTPTDFTSPI; experiment: ELISA biotin-peptide; scFv 10 ug/mL; repII
Protocol: as §1
(§3) ELISA with biotin-conjugated peptides (5 μg/mL) was performed very similar to described above with minor modifications.

[29] = molecular target: T18, biotin-peptide TSSMEDYVNF; experiment: ELISA biotin-peptide; scFv 5 ug/mL; repI
Protocol: as §1, §3
(§4) A full curve ELISA was performed for each positive scFv/biotin-peptide pair in order to confirm previous results. Tables 15-17 show ELISA results of the dose-dependent full curve for each positive peptide with scFv “CCR9_HUM”, “Comp-2” and “Comp-3”, respectively.

[30] = molecular target: T19, biotin-peptide SSMEDYVNFN; experiment: ELISA biotin-peptide; scFv 5 ug/mL; repI
Protocol: as §1, §3, §4

[31] = molecular target: T20, biotin-peptide SMEDYVNFNF; experiment: ELISA biotin-peptide; scFv 5 ug/mL; repI
Protocol: as §1, §3, §4

[32] = molecular target: T21, biotin-peptide MEDYVNFNFT; experiment: ELISA biotin-peptide; scFv 5 ug/mL; repI
Protocol: as §1, §3, §4

| Binder | OD450 [12] [OD] | OD450 [13] [OD] | OD450 [14] [OD] | OD450 [15] [OD] | OD450 [16] [OD] | OD450 [17] [OD] | OD450 [18] [OD] | OD450 [19] [OD] | OD450 [20] [OD] | OD450 [21] [OD] | OD450 [22] [OD] | OD450 [23] [OD] | OD450 [24] [OD] | OD450 [25] [OD] | OD450 [26] [OD] | OD450 [27] [OD] | OD450 [28] [OD] | further results |
| --- | --- | --- | --- | --- | --- | --- | --- | --- | --- | --- | --- | --- | --- | --- | --- | --- | --- | --- |
| B1 | 0.04 | 0.06 | 0.05 | 0.01 | 0.02 | 0.02 | 0.04 | 0.03 | 0.09 | 0.02 | 0.06 | 0.04 | 0.02 | 0.03 | 0.04 | 0.02 | 0.07 | binding result [1]: no binding (tested: 1 ug/mL); binding result [2]: no binding (tested: 1 ug/mL); binding result [3]: no binding (tested: 1 ug/mL); binding result [4]: no binding (tested: 1 ug/mL); binding result [5]: no binding (tested: 1 ug/mL); binding result [6]: no binding (tested: 1 ug/mL); binding result [7]: no binding (tested: 1 ug/mL); binding result [8]: no binding (tested: 1 ug/mL); binding result [9]: no binding (tested: 1 ug/mL); binding result [10]: no binding (tested: 1 ug/mL); binding result [11]: no binding (tested: 1 ug/mL) |
| B2 | 0.04 | 0.04 | 0.02 | 0.02 | 0.03 | 0.02 | 0.03 | 0.03 | 0.99 | 1.48 | 0.86 | 0.02 | 0.03 | 0.03 | 0.03 | 0.03 | 0.09 | OD450 [29]: 1.47 OD; OD450 [30]: 1.86 OD; OD450 [31]: 1.78 OD; OD450 [32]: 1.71 OD |
